Experimental findings from US20240109974A1 (SHANDONG SIMCERE BIOPHARMACEUTICAL, published 2024) are described below.

In assay [1] the target is T1, Human TNFR2-His (Sino 10417-H08H) (human, UniProt P20333 23-257).
T1 construct: Bought protein; also called recombinant human TNFR2 protein; not shown: His tag
T1 sequence (looked up): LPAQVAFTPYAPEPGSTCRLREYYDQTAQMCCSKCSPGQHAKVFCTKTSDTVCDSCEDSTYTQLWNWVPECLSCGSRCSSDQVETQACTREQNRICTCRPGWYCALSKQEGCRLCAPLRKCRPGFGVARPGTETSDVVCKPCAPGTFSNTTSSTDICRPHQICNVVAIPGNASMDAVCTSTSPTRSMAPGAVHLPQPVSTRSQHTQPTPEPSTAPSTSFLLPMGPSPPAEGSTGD
The assay can be described thus: SPR (Biacore T200), antibody captured on Protein A chip. How it is done:
(§1) Biacore was used to detect the specific binding of a test anti-TNFR2 antibody to human and cynomolgus monkey TNFR2 proteins. In this experiment, a Protein A chip was used, the time required for the chip to capture the diluted antibody was determined by manual run, so that the Rmax of the saturated binding to an antigen was 50 RU. […] The affinity of an antibody for an antigen was determined by using multi-cycle dynamics. In each cycle, an antibody was injected and then a TNFR2 protein at a gradient concentration was injected, so that the antigen and the antibody underwent binding and dissociation processes. After each cycle, the Protein A chip was regenerated with Glycine pH 1.5 (removing the protein on the chip). The affinity KD of an antibody and an antigen was fitted with BIAcore T200 analysis software.
(In SPR one partner is held on a chip, and binding of the other changes the refractive index at the surface.)

The target of assay [2] is T2, Cynomolgus TNFR2-His (Sino 90102-C08H) (cynomolgus monkey, UniProt A0A2K5VET2 132-366).
T2 construct: Bought protein; also called cynomolgus monkey TNFR2; recombinant cynomolgus monkey TNFR2 protein; not shown: His tag
T2 sequence: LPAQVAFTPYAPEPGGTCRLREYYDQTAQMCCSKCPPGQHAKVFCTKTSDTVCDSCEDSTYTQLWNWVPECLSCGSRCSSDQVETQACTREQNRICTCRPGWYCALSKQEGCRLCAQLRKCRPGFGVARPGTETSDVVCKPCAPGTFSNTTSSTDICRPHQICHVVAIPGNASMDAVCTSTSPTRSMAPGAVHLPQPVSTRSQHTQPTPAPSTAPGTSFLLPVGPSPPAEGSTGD
Described as above. How it is done: as §1

Assay [3] addresses T2, Cynomolgus TNFR2-His (Sino 90102-C08H). In words: ELISA, cynomolgus TNFR2-His coated. As for the experimental part:
The test humanized antibody against TNFR2 (as described in Example 1, the antibody was comprised of variable regions linked to IgG-Fc; the WT chimeric antibody also adopted the IgG-Fc structure) was subjected to 3.33-fold gradient dilution, loaded with 100 μl/well, and incubated with shaking at room temperature for 1.5 hours. The plate was washed, and then a working solution of murine anti-human IgG Fc-HRP (diluted at 1:10000) was added, loaded with 100 μl/well, and incubated with shaking at room temperature for 1.0 hour. The plate was washed again, and then the substrate TMB of HRP was added to develop colour. A stop solution was added to stop the reaction, and then a microplate reader (MD 13) was used to read the absorbance value. The binding curve of an antibody was drawn with antibody concentration as the abscissa and corresponding OD value as the ordinate, and fitted with four parameters (GraphPad Prism9) to calculate the EC50 value. The smaller the EC50 value, the stronger the binding ability of an antibody to human/cynomolgus monkey TNFR2. The binding effect of a humanized antibody was normalized to its corresponding human-murine chimeric antibody WT (see SEQ ID NOs: 38-43 for the sequence). The higher the percentage value, the better the binding effect of the humanized antibody. The results of binding of an anti-TNFR2 antibody to a human TNFR2 protein are shown in FIG. 1 and Table 4, and the results of binding of an anti-TNFR2 antibody to cynomolgus monkey TNFR2 are shown in FIG. 2 and Table 4.

Assay [4] addresses T3, human TNFR2 on the surface of CHO-TNFR2 cells (human, UniProt P20333 23-461).
T3 construct: whole, on cells
T3 sequence (looked up): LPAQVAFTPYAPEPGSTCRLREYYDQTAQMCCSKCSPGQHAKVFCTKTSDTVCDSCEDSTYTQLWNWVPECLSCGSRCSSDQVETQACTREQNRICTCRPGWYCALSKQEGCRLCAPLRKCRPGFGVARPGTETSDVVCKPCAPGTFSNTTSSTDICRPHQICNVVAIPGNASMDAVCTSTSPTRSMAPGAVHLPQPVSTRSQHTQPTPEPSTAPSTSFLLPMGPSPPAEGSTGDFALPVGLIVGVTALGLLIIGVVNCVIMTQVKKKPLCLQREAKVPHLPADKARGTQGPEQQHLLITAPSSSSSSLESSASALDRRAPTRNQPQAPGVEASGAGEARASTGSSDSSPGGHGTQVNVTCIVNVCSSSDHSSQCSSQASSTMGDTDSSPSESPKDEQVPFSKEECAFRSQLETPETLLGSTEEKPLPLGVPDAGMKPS
In words: competition flow cytometry on CHO-TNFR2 cells, competitor TNFα-biotin; area under the MFI curve. Also noted: unit not given beside the values. As for the experimental part: CHO stable cells highly expressing human TNFR2 were used for the experiment (the same as CHO-TNFR2 in Example 4). The CHO-TNFR2 cells were digested, washed twice with DPBS, then stained with Live/Dead (L/D) (20 minutes at room temperature), and plated at a density of 1×10⁵ cells/50 μl/well. A test anti-TNFR2 antibody was diluted to 6 μg/ml with a staining buffer as the starting concentration: the antibody was subjected to 3.33-fold gradient dilution, with a total of 7 concentration points. The diluted antibody was added to the plated cells at 50 μl/well, and the mixture was mixed well by gentle pipetting, and incubated at 4° C. for 30 minutes. Then the diluted 100 ng/ml of human TNFα-biotin was added at 100 μl/well, and the mixture was mixed well by gentle pipetting, and then incubated at 4° C. for 30 minutes. The mixture was washed twice with a staining buffer, and then 0.12 μg/ml PE-streptavidin (BioLegend, Cat #405204) was added at 100 μl/well; the resulting mixture was incubated at 4° C. for 30 minutes. The mixture was washed twice with a staining buffer, and then 150 μl of staining buffer was added to resuspend the cells; signals were detected by a flow cytometer (Thermo Attune NxT). The inhibitory curve of an antibody was drawn with antibody concentration as the abscissa and corresponding MFI value as the ordinate, and fitted with four parameters (GraphPad Prism9) to calculate the IC50 value. The smaller the IC50 value, the stronger the ability of an antibody to inhibit the binding of human TNFα to human TNFR2. The blocking effect of a humanized antibody was normalized to its corresponding human-murine chimeric WT antibody. The higher the percentage value, the better the inhibitory effect of the humanized antibody.

B1: 224-WT (antibody, V domains shown)
VH: EVQLQESGPEIVKPGASVKLSCTASGFNNKDIYMHWVKQRPEQGLEWIGRIDPATGNTKHDPKFQDKATLSSDTSSNTAYLQFSSLTSEDTAVYYCAHSPYGDFGAMDYWGQGTTVTVSS
VL: DIQMTQSPAIMSASLGERVTMTCTASSSVSSNYLHWYQQKPGSSPKLWIYSTSNLPSGVPARFSGSGSGTSYSLTISSMEAEDAATYYCHQYHRSPWTFGGGTKLEIK
notes: Human-murine chimeric wild-type molecule; also called human-murine chimeric antibody WT of #224
As for B1, in assay [1], binding was put at a Kd of 2.33 nM; the dissociation rate constant (koff) – broadly, the first-order rate constant of dissociation – is 0.000405 s⁻¹; the kon (as a rule, the second-order rate constant of association) worked out at 174000 M⁻¹ s⁻¹. Also, in assay [2], the dissociation constant Kd (commonly the concentration at which binding is half-saturated) stood at 0.897 nM, the koff was found to be 0.000409 s⁻¹ and the kon is 456000 M⁻¹ s⁻¹.

B2: 001-WT (antibody, V domains shown)
VH: EVQLQESGGGLVQPGGSLNLSCAASGFAFSTYDLSWVRQTPEKRLEWVAYINNGGISTYYSDTVKGRFTISRDNAKNTLYLQMSSLKSEDTAMYYCVRGPFYGSANYFDYWGQGTTVTVSS
VL: EIVMTQSPASLSLSVGETVTITCRTSESIYSNLPWYQQKQGKSPQLLVYDATKLAEGVPSRFSGSESGTQYSLKINSLQSEDFGTYYCQHFWVTPWTFGGGTKLEIK
notes: Human-murine chimeric wild-type molecule; also called human-murine chimeric antibody WT of #001
For B2, in assay [1], the affinity, expressed as Kd, was 0.235 nM; the koff is 0.000121 s⁻¹; the kon worked out at 512000 M⁻¹ s⁻¹. In addition, in assay [2], the dissociation constant (Kd) is 0.252 nM, the dissociation rate constant (koff) amounted to 0.000154 s⁻¹ and the kon stood at 614000 M⁻¹ s⁻¹.

B3: 001-Hu5 (antibody, V domains shown)
VH: EVQLVESGGGLVQPGGSLRLSCAASGFAFSTYDLSWVRQAPGKGLEWVAYINNGGISTYYSDTVKGRFTISRDNAKNTLYLQMNSLRAEDTAVYYCVRGPFYGSANYFDYWGQGTLVTVSS
VL: DIQMTQSPSSLSASVGDRVTITCRTSESIYSNLPWYQQKPGKSPKLLVYDATKLAEGVPSRFSGSGSGTDYTLTISSLQPEDFATYYCQHFWVTPWTFGQGTKVEIK
notes: Humanized form of #001; also called VH1 + VL4
Take B3: in assay [1], the dissociation constant Kd stood at 0.416 nM, the koff came to 0.000115 s⁻¹ and the kon is 277000 M⁻¹ s⁻¹. In assay [2], this molecule showed a dissociation constant Kd of 0.475 nM, a koff of 0.000175 s⁻¹ and a kon of 369000 M⁻¹ s⁻¹. For the same molecule, the response in assay [3] was half-maximal at 9.88 ng/mL (EC50). Moreover, the AUC in assay [4] is 10200.

B4: 001-Hu2 (antibody, V domains shown)
VH: EVQLVESGGGLVQPGGSLRLSCAASGFAFSTYDLSWVRQAPGKGLEWVAYINNGGISTYYSDTVKGRFTISRDNAKNSLYLQMNSLRAEDTAVYYCVRGPFYGSANYFDYWGQGTLVTVSS
VL: DIQMTQSPSSLSASVGDRVTITCRTSESIYSNLPWYQQKPGKSPKLLIYDATKLAEGVPSRFSGSGSGTDFTLTISSLQPEDFATYYCQHFWVTPWTFGQGTKVEIK
notes: Humanized form of #001; also called VH2 + VL2
In assay [1], B4 displayed a dissociation constant Kd of 0.496 nM, a koff of 0.000107 s⁻¹ and a kon of 215000 M⁻¹ s⁻¹. Also, in assay [2], the equilibrium dissociation constant (Kd) was 0.599 nM, the off-rate (koff) worked out at 0.000164 s⁻¹ and the kon was 273000 M⁻¹ s⁻¹. Moreover, the EC50 (usually the concentration giving half of the maximal effect) in assay [3] was found to be 9.14 ng/mL. The molecule also had an AUC in assay [4] of 9000.

B5: 001-Hu4 (antibody, V domains shown)
VH: EVQLVESGGGLVQPGGSLRLSCAASGFAFSTYDLSWVRQAPGKGLEWVAYINNGGISTYYSDTVKGRFTISRDNAKNSLYLQMNSLRAEDTAVYYCVRGPFYGSANYFDYWGQGTLVTVSS
VL: DIQMTQSPSSLSASVGDRVTITCRTSESIYSNLPWYQQKPGKSPKLLVYDATKLAEGVPSRFSGSGSGTDYTLTISSLQPEDFATYYCQHFWVTPWTFGQGTKVEIK
notes: Humanized form of #001; also called VH2 + VL4
Regarding B5, in assay [1], the Kd is 0.417 nM, the koff was 0.000113 s⁻¹ and the kon was determined as 270000 M⁻¹ s⁻¹. In assay [2], this molecule gave a dissociation constant (Kd) of 0.473 nM, an off-rate (koff) of 0.000167 s⁻¹ and an on-rate (kon) of 354000 M⁻¹ s⁻¹. The molecule also registered an EC50 in assay [3] of 9.27 ng/mL. Also, the AUC in assay [4] amounted to 10200.

B6: 001-Hu3 (antibody, V domains shown)
VH: EVQLVESGGGLVQPGGSLRLSCAASGFAFSTYDLSWVRQAPGKGLEWVAYINNGGISTYYSDTVKGRFTISRDNAKNTLYLQMNSLRAEDTAVYYCVRGPFYGSANYFDYWGQGTLVTVSS
VL: DIQMTQSPSSLSASVGDRVTITCRTSESIYSNLPWYQQKPGKAPKLLIYDATKLAEGVPSRFSGSGSGTDYTLTISSLQPEDFATYYCQHFWVTPWTFGQGTKVEIK
notes: Humanized form of #001; also called VH1 + VL3
Consider B6, for which, in assay [1], the Kd was 0.375 nM, the koff turned out to be 9.91e-05 s⁻¹ and the on-rate (kon) is 265000 M⁻¹ s⁻¹. In assay [2], this molecule registered a dissociation constant (Kd) of 0.43 nM, an off-rate (koff) of 0.000155 s⁻¹ and a kon of 361000 M⁻¹ s⁻¹. It took 9.9 ng/mL to reach a half-maximal effect in assay [3] (EC50). Also, the AUC in assay [4] is 8810.

B7: 001-Hu1 (antibody, V domains shown)
VH: EVQLVESGGGLVQPGGSLRLSCAASGFAFSTYDLSWVRQAPGKGLEWVAYINNGGISTYYSDTVKGRFTISRDNAKNTLYLQMNSLRAEDTAVYYCVRGPFYGSANYFDYWGQGTLVTVSS
VL: DIQMTQSPSSLSASVGDRVTITCRTSESIYSNLPWYQQKPGKAPKLLLYDATKLAEGVPSRFSGSGSGTDYTLTISSLQPEDFATYYCQHFWVTPWTFGQGTKVEIK
notes: Humanized form of #001; also called VH1 + VL1
Consider B7, for which, in assay [1], binding was characterised by a dissociation constant (Kd) of 0.371 nM, the koff stood at 0.000108 s⁻¹ and the kon came out at 291000 M⁻¹ s⁻¹. In addition, in assay [2], the Kd was determined as 0.47 nM, the koff amounted to 0.00016 s⁻¹ and the association rate constant (kon) is 340000 M⁻¹ s⁻¹. Besides, a half-maximal response in assay [3] (EC50) required 9.62 ng/mL. Also, the AUC in assay [4] amounted to 8840.

B8: 219-WT (antibody, V domains shown)
VH: EVQLQESGAELVRPGASVKLSCKASGYSFTNYWMNWVKQRPGQGLEWIGMIHPSDTETRLNQNFKDKATLTVDKSSSTSYMQLSSPTSEDSAVYYCARGEGLGAARSVSMDYWGQGTTVTVSS
VL: DILMTQSPSSLSASLGDRVTISCRASQDISNYLNWYQQKPDGTVKVLIYYTAILHSGVPSRFSGSGSGTDYSLTISNLEQEDIATYFCQQGNTLPWTFGGGTKLEIK
notes: Human-murine chimeric wild-type molecule
In assay [1], B8 yielded a Kd of 0.554 nM, a koff of 0.000192 s⁻¹ and a kon of 346000 M⁻¹ s⁻¹. For the same molecule, in assay [2], the Kd was found to be 1.14 nM, the koff was found to be 0.000562 s⁻¹ and the kon turned out to be 492000 M⁻¹ s⁻¹.
